Data on 7 molecules can be found in patent US20230105029A1 (CHIA TAI TIANQING PHARMACEUTICAL GROUP, published 2023).

Assay [1] deals with T1, recombinant human IL4Rα-his protein (in house made) (human, UniProt P24394 26-232, limits assumed).
T1 construct: also called Human IL4Ra-his
Nature of the assay: competitive ELISA: coated human IL4Rα-his, blocked ligand biotin human IL4. How it is done: The activity of the anti-IL4Rα antibodies of the disclosure to block IL4-IL4Rα interaction was measured in a competitive ELISA assay. Briefly, 100 μl human IL4Rα-his proteins (prepared in-house with SEQ ID NO: 57) were coated on 96-well micro plates at 2 μg/mL in PBS overnight at 4° C. The next day, plates were washed with wash buffer (PBS+0.05% w/v Tween-20, PBST), and blocked with 5% w/v non-fatty milk in PBST for 2 hours at 37° C. Plates were then washed again using wash buffer.
Serially diluted anti-IL4Rα antibodies or the controls (starting at 80 nM with a 4-fold serial dilution) in 2.5% w/v non-fatty milk in PBST, 100 μl per well, were added to the IL4Rα bound plates, and incubated with the human IL4Rα-his proteins at 37° C. for 40 minutes. Plates were washed 4 times using wash buffer, and then added and incubated for 40 minutes at 37° C. with 100 μl/well of 0.56 nM biotin-labeled human IL4 protein (Sino biological inc., Cat #11846-HNAE). Plates were washed again using wash buffer. Thereafter, the plates were added with 100 μl/well of streptavidin conjugated HRP (1:10000 dilution in PBST buffer, Jackson Immunoresearch, Cat #016-030-084) and incubated for 40 minutes at 37° C. Plates were washed again using wash buffer. Finally, TMB was added and the reaction was stopped using 1M H₂SO₄, and the absorbance was read at 450 nm. Data was analyzed using Graphpad Prism software and IC₅₀ values were reported.
(An ELISA detects its analyte on a solid surface through an enzyme-linked reagent.)

Assay [2] concerns the target T2, human IL4Rα expressed on HEK293T-IL4Rα-STAT6-STAT6LUC-LB2 cells (human, UniProt P24394 26-825). Nature of the assay: cell-based or functional assay.
In assay [3] the target is T3, human IL4Rα expressed on 293F-IL4Rα cells (human, UniProt P24394 26-825).
T3 construct: whole, on cells; also called cell surface human IL4Rα
The assay is described as follows: flow cytometry on 293F-IL4Rα cells, blocked ligand biotin human IL4. (In general: A flow cytometer gives signals particle by particle.)

The target in assay [4] is T3, human IL4Rα expressed on 293F-IL4Rα …. The assay is described as follows: flow cytometry, 293F-IL4Rα cells. How it is done:
Then, 2×10⁵ cells per well in 96 well-plates were incubated in 100 μL of the anti-IL4Rα antibodies or controls of various concentrations (starting at 80 nM with a 4-fold serial dilution) in FACS buffer for 40 minutes on ice. […] Following an incubation of 40 minutes at 4° C. in dark, cells were washed three times and resuspended in FACS buffer. Fluorescence was measured using a Becton Dickinson FACS Canto II-HTS equipment. Data was analyzed using Graphpad Prism software and EC₅₀ values were reported.

Assay [5] has the same target. Nature of the assay: flow cytometry on 293F-IL4Rα cells.
For assay [6], the target named is T1, recombinant human IL4Rα-his protein (in …). Nature of the assay: competitive ELISA: coated human IL4Rα-his, blocked ligand biotin human IL4. The source holds these as a separate data set.
Assay [7] deals with T4, cynomolgus monkey IL4Rα-his protein (cynomolgus monkey, UniProt A0A2K5V580 33-239).
T4 construct: Bought protein; also called Cynomolgus IL4Rα; Cyno-IL4Rα-his; not shown: his tag
The assay is described as follows: indirect ELISA on coated cynomolgus IL4Rα-his.

The target of assay [8] is T1, recombinant human IL4Rα-his protein (in …). The assay is described as follows: capture ELISA, biotin-IL4Rα-his. How it is done: Plates were washed once with wash buffer (PBS+0.05% w/v Tween-20, PBST) and then blocked with 200 μl/well blocking buffer (5% w/v non-fatty milk in PBST) for 2 hours at 37° C. Plates were washed again and incubated with 100 μl/well serially diluted anti-IL4Rα antibodies of the disclosure, the benchmark or negative control hIgG (human immunoglobulin (pH4) for intravenous injection, Hualan Biological Engineering Inc.) (5-fold dilution in 2.5% w/v non-fatty milk in PBST, starting at 66.7 nM) for 40 minutes at 37° C., and then washed 4 times again. Plates containing captured anti-IL4Rα antibodies were incubated with biotin-labeled human IL4Rα-his protein (in house made with SEQ ID NO: 57, 0.14 nM in 2.5% w/v non-fatty milk in PBST, 100 μl/well) for 40 minutes at 37° C., washed 4 times, and incubated with streptavidin conjugated HRP (1:10000 dilution in PBST, Jackson Immuno Research, Cat #016-030-084, 100 μl/well) for 40 minutes at 37° C. After a final wash, plates were incubated with 100 μl/well ELISA substrate TMB (Innoreagents, Cat #TMB-S-002). The reaction was stopped in 10 minutes at 25° C. with 50 μl/well 1M H₂SO₄, and the absorbance was read at 450 nm. Data was analyzed using Graphpad Prism software and EC₅₀ values were reported.
For the capture ELISA, 96-well micro plates were coated with 2 μg/ml goat anti-human IgG (AffiniPure Goat Anti-Human IgG, Fcγ fragment specific, Jackson Immunoresearch, Cat #109-005-098) instead of goat anti-mouse IgG Fey fragment, 100 μl/well.

The target in assay [9] is T5, marmoset monkey IL4Rα-his protein (marmoset monkey).
T5 construct: Custom made by Sino biological; no cleavage site stated; also called cal-IL4Rα-his; Cal-IL4Rα
T5 chain: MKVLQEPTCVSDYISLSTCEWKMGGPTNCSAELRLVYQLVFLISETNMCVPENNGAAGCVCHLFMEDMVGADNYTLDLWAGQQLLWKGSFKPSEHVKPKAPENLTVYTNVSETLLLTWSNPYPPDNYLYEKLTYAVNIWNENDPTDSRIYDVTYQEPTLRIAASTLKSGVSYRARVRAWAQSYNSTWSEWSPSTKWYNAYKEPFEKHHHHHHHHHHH
Nature of the assay: indirect ELISA on coated cal-IL4Rα-his.

Assay [10] deals with T1, recombinant human IL4Rα-his protein (in …). The assay is described as follows: SPR (Biacore), antibody captured, IL4Rα-his flowed. In general terms: In SPR one partner is held on a chip, and binding of the other changes the refractive index at the surface.
The target of assay [11] is T2, human IL4Rα expressed on …. Nature of the assay: cell-based or functional assay. This is another data set of the same source.

Numbering of substitutions follows the chain as printed. Like-named read-outs stand apart in the source and are kept apart here.

B1: mouse antibody B1D2F7D3B5 (antibody, V domains shown)
VH: EVKLVESGGGLVKPGGSLKLSCAASGFTFSSYAMSWVRQTPEKRLEWVASISSGDSTYYLDSVKGRFTISRDNAMNILYLQMSSLRSEDTAVYYCERSGGSAPYWGQGTLVSVSA
VL: QIVLTQSPAIMSASPGEMVTISCSASSSVSYMYWYQQKPGSSPKPWIYRTSNLASGVPARFSGSGSGTSYSLTISSMEAEDAATYYCQQYHSFPLTFGAGTKLELK
notes: Mouse hybridoma mAb
Consider B1, for which the IC50 (as a rule, the concentration that gives 50% inhibition) in assay [1] came out at 1.8 nM.

B2: mouse antibody B9D1D11F8D8 (antibody, V domains shown)
VH: B1 VH with M75R, M82V, V92M, S112T
VL: B1 VL with E17D, S30N
notes: Mouse hybridoma mAb
For the molecule B2, the IC50 in [1] came to 2.88 nM.

B3: mouse antibody B8G11F2B7G5E8 (antibody, V domains shown)
VH: EVQLQQSGADLVRPGASVKLSCTASGFNIKDTYMHWVKQRPEQGLEWVGRIDPTNGYTIYASKFQGKATITADTSSNTAYMQLSSLTSGDTAVYHCVSRRPWFAYWGQGTLVTVSA
VL: DILMTQTPLSLPVSLGAQASISCRSSQSIVHSNGNTYLEWYLQKPGQSPKLLIYKVTNRFSGVPDRFSGSGSGTDFTLKISRVEAEDLGIYYCFQGSHVPYTFGGGTKLEIK
notes: Mouse hybridoma mAb; also called Mouse B8G11F2B7G5E8; mAb B8G11F2B7G5E8
Turning to B3, in [2], the “Inhibition on IL4 induced STAT6 phosphorylation (IC50, nM)” value was 0.26 nM. For the same molecule, the “Inhibition on IL13 induced STAT6 phosphorylation (IC50, nM)” value in assay [2] turned out to be 0.6 nM. Further, the IC50 in assay [1] was found to be 0.81 nM; in [3], 0.5 nM; in assay [6] it was 1 nM. In addition, the EC50 (usually the concentration giving half of the maximal effect) in assay [4] amounted to 0.33 nM; in [5], 0.325 nM; in assay [7], 0.5 nM; in assay [8], 0.14 nM; in assay [9], 0.873 nM.

B4: chimeric antibody B8G11F2B7G5E8 (antibody, human IgG4 S228P, kappa, V domains shown)
VH: B3 VH
VL: DILMTQTPLSLPVSLGAQASISCRSSQSIVHSNGNTYLEWYLQKPGQSPKLLIYKVTNRFSGVPDRFSGSGSGTDFTLKISRVEAEDLGIYYCFQGSHVPYTFGGGTKLEIKR
notes: Mouse variable domains on human IgG4/kappa; also called Chimeric B8G11F2B7G5E8; chB8G11F2B7G5E8
On to B4, for which the “Inhibition on IL4 induced STAT6 phosphorylation (IC50, nM)” value in assay [2] was 0.26 nM; in assay [11] it was 0.45 nM. Also, the “Inhibition on IL13 induced STAT6 phosphorylation (IC50, nM)” value in assay [2] is 0.76 nM; in [11], 0.5 nM. Further, the Kd (usually a measure of binding affinity in units of concentration) in assay [10] was determined as 3.23 nM. The IC50 is 0.364 nM in assay [3] and 1.42 nM in assay [6]. Besides, the EC50 in assay [4] was found to be 0.44 nM; in [5], 0.442 nM; in assay [7], 1.06 nM; in assay [8], 0.27 nM; in assay [9], 1.01 nM.

B5: mouse antibody C2C1A1A1 (antibody, V domains shown)
VH: EVQLVESGGGLVQPGGSLKLSCAASGFTFSTYGMSWVRQTPDKRLELVATINSNGGSTSYPDSVKGRFTISRDNAKNTLYLQMSSLKSEDTAMFYCARFFRFRNAMDYWGQGTSVTVSS
VL: DIQMTQSPASLSASVGETVTITCRTSENIYSYLAWYQQKQGKSPQFLVYNAKTLAEGVPSRFSGSGSGTQFSLNINSLQSEDFGSYYCQHYYGPPTWTFGGGTKLEIK
notes: Mouse hybridoma mAb; also called Mouse C2C1A1A1
For the molecule B5, in assay [2], the “Inhibition on IL4 induced STAT6 phosphorylation (IC50, nM)” value was 0.19 nM and the “Inhibition on IL13 induced STAT6 phosphorylation (IC50, nM)” value amounted to 0.27 nM. Moreover, the IC50 in [1] was determined as 0.812 nM. Besides, in assay [8], the half-maximal effective concentration (EC50) amounted to 0.03 nM.

B6: chimeric antibody C2C1A1A1 (antibody, human IgG4 S228P, kappa, V domains shown)
VH: B5 VH
VL: DIQMTQSPASLSASVGETVTITCRTSENIYSYLAWYQQKQGKSPQFLVYNAKTLAEGVPSRFSGSGSGTQFSLNINSLQSEDFGSYYCQHYYGPPTWTFGGGTKLEIKR
notes: Mouse variable domains on human IgG4/kappa; also called Chimeric C2C1A1A1; chC2C1A1A1
Turning to B6, the figures for the “Inhibition on IL4 induced STAT6 phosphorylation (IC50, nM)” value in assay [2] and in assay [11] were 0.27 nM and 0.26 nM, respectively. The “Inhibition on IL13 induced STAT6 phosphorylation (IC50, nM)” value in assay [2] amounted to 0.56 nM; in assay [11], 0.39 nM. For the same molecule, in assay [10], the dissociation constant (Kd) was found to be 0.388 nM. Further, the EC50 was found to be 0.33 nM in assay [4] and 0.05 nM in [8].

B7: mouse antibody C2B2F7B7 (antibody, V domains shown)
VH: B5 VH with S59N, F94Y, F102I
VL: B5 VL with T25A, N74K, S80P, P94T
notes: Mouse hybridoma mAb
In the case of B7, the half-inhibitory concentration (IC50) in [1] was 0.726 nM.
